According to PMC6025699, “Acetylation Regulates Thioredoxin Reductase Oligomerization and Activity” (Antioxidants & Redox Signaling, 2018):
Several values for one entry are separate records, joined by “and”; a condition that tells them apart may be missing. Equal values may be shown once.

B1: acetylated thioredoxin reductase 1, Nɛ-acetyl-lysine at K141 (acTrxR1^K141) (enzyme, human, UniProt Q16881-4 1-551, looked up)
chain: MSCEDGRALEGTLSELAAETDLPVVFVKQRKIGGHGPTLKAYQEGRLQKLLKMNGPEDLPKSYDYDLIIIGGGSGGLAAAKEAAQYGKKVMVLDFVTPTPLGTRWGLGGTCVNVGCIPKKLMHQAALLGQALQDSRNYGWKVEETVKHDWDRMIEAVQNHIGSLNWGYRVALREKKVVYENAYGQFIGPHRIKATNNKGKEKIYSAERFLIATGERPRYLGIPGDKEYCISSDDLFSLPYCPGKTLVVGASYVALECAGFLAGIGLDVTVMVRSILLRGFDQDMANKIGEHMEEHGIKFIRQFVPIKVEQIEAGTPGRLRVVAQSTNSEEIIEGEYNTVMLAIGRDACTRKIGLETVGVKINEKTGKIPVTDEEQTNVPYIYAIGDILEDKVELTPVAIQAGRLLAQRLYAGSTVKCDYENVPTTVFTPLEYGACGLSEEKAVEKFGEENIEVYHSYFWPLEWTIPSRDNNKCYAKIICNTKDNERVVGFHVLGPNAGEVTQGFAAALKCGLTKKQLDSTIGIHPVCAEVFTTLSVTKRSGASILQAGCUG
modifications: Nɛ-acetyl-lysine at 141; selenocysteine (Sec) at 550
notes: Same construct as m1 but for the acetyl-lysine at 141; source: E. coli BL21 DE3 or E. coli ΔRF1 (C321.ΔA.exp) with acKRS/tRNA^Pyl, purified (Ni-NTA, size-exclusion chromatography)
B2: acetylated thioredoxin reductase 1, Nɛ-acetyl-lysine at K200 (acTrxR1^K200) (enzyme, human, UniProt Q16881-4 1-551, looked up)
chain: MSCEDGRALEGTLSELAAETDLPVVFVKQRKIGGHGPTLKAYQEGRLQKLLKMNGPEDLPKSYDYDLIIIGGGSGGLAAAKEAAQYGKKVMVLDFVTPTPLGTRWGLGGTCVNVGCIPKKLMHQAALLGQALQDSRNYGWKVEETVKHDWDRMIEAVQNHIGSLNWGYRVALREKKVVYENAYGQFIGPHRIKATNNKGKEKIYSAERFLIATGERPRYLGIPGDKEYCISSDDLFSLPYCPGKTLVVGASYVALECAGFLAGIGLDVTVMVRSILLRGFDQDMANKIGEHMEEHGIKFIRQFVPIKVEQIEAGTPGRLRVVAQSTNSEEIIEGEYNTVMLAIGRDACTRKIGLETVGVKINEKTGKIPVTDEEQTNVPYIYAIGDILEDKVELTPVAIQAGRLLAQRLYAGSTVKCDYENVPTTVFTPLEYGACGLSEEKAVEKFGEENIEVYHSYFWPLEWTIPSRDNNKCYAKIICNTKDNERVVGFHVLGPNAGEVTQGFAAALKCGLTKKQLDSTIGIHPVCAEVFTTLSVTKRSGASILQAGCUG
modifications: Nɛ-acetyl-lysine at 200; selenocysteine (Sec) at 550
notes: Same construct as m1 but for the acetyl-lysine at 200; source: E. coli BL21 DE3 or E. coli ΔRF1 (C321.ΔA.exp) with acKRS/tRNA^Pyl, purified (Ni-NTA, size-exclusion chromatography)
B3: acetylated thioredoxin reductase 1, Nɛ-acetyl-lysine at K307 (acTrxR1^K307) (enzyme, human, UniProt Q16881-4 1-551, looked up)
chain: MSCEDGRALEGTLSELAAETDLPVVFVKQRKIGGHGPTLKAYQEGRLQKLLKMNGPEDLPKSYDYDLIIIGGGSGGLAAAKEAAQYGKKVMVLDFVTPTPLGTRWGLGGTCVNVGCIPKKLMHQAALLGQALQDSRNYGWKVEETVKHDWDRMIEAVQNHIGSLNWGYRVALREKKVVYENAYGQFIGPHRIKATNNKGKEKIYSAERFLIATGERPRYLGIPGDKEYCISSDDLFSLPYCPGKTLVVGASYVALECAGFLAGIGLDVTVMVRSILLRGFDQDMANKIGEHMEEHGIKFIRQFVPIKVEQIEAGTPGRLRVVAQSTNSEEIIEGEYNTVMLAIGRDACTRKIGLETVGVKINEKTGKIPVTDEEQTNVPYIYAIGDILEDKVELTPVAIQAGRLLAQRLYAGSTVKCDYENVPTTVFTPLEYGACGLSEEKAVEKFGEENIEVYHSYFWPLEWTIPSRDNNKCYAKIICNTKDNERVVGFHVLGPNAGEVTQGFAAALKCGLTKKQLDSTIGIHPVCAEVFTTLSVTKRSGASILQAGCUG
modifications: Nɛ-acetyl-lysine at 307; selenocysteine (Sec) at 550
notes: Same construct as m1 but for the acetyl-lysine at 307; source: E. coli BL21 DE3 or E. coli ΔRF1 (C321.ΔA.exp) with acKRS/tRNA^Pyl, purified (Ni-NTA, size-exclusion chromatography)
B4: wild-type thioredoxin reductase 1 (human TrxR1, isoform 4, Sec550) (enzyme, UniProt Q16881-4 1-551, looked up)
chain: MSCEDGRALEGTLSELAAETDLPVVFVKQRKIGGHGPTLKAYQEGRLQKLLKMNGPEDLPKSYDYDLIIIGGGSGGLAAAKEAAQYGKKVMVLDFVTPTPLGTRWGLGGTCVNVGCIPKKLMHQAALLGQALQDSRNYGWKVEETVKHDWDRMIEAVQNHIGSLNWGYRVALREKKVVYENAYGQFIGPHRIKATNNKGKEKIYSAERFLIATGERPRYLGIPGDKEYCISSDDLFSLPYCPGKTLVVGASYVALECAGFLAGIGLDVTVMVRSILLRGFDQDMANKIGEHMEEHGIKFIRQFVPIKVEQIEAGTPGRLRVVAQSTNSEEIIEGEYNTVMLAIGRDACTRKIGLETVGVKINEKTGKIPVTDEEQTNVPYIYAIGDILEDKVELTPVAIQAGRLLAQRLYAGSTVKCDYENVPTTVFTPLEYGACGLSEEKAVEKFGEENIEVYHSYFWPLEWTIPSRDNNKCYAKIICNTKDNERVVGFHVLGPNAGEVTQGFAAALKCGLTKKQLDSTIGIHPVCAEVFTTLSVTKRSGASILQAGCUG
modifications: selenocysteine (Sec) at 550
notes: amplified with a forward primer at the ATG (NdeI) and a reverse primer behind the fdhF SecIS in the 3' UTR; In solution a mixture of monomers, dimers, tetramers and covalently linked dimers; also called WT TrxR1; His6-TrxR1; source: E. coli BL21 DE3 or E. coli ΔRF1 (C321.ΔA.exp), purified (Ni-NTA, size-exclusion chromatography)

Legend:
[1] = molecular target: the molecule itself; test: cell-based or functional assay
[2] = molecular target: the molecule itself; test: SEC; native size exclusion chromatography, Superdex 200 Increase 10/300 GL, 20 mM sodium phosphate, 150 mM sodium chloride, pH 7.5; 0.5 mL fractions read by anti-His Western blot (densitometry) and DTNB activity; self-association: monomers, dimers, tetramers

| Protein | 9,10-phenanthrequinone assay, relative activity (x-fold, WT TrxR1 = 1), 100 nM TrxR1 [1] [x-fold] | DTNB assay, relative activity (x-fold, WT TrxR1 = 1), 50 nM TrxR1 [1] [x-fold] | insulin linked Trx1 assay, relative activity (x-fold, WT TrxR1 = 1), 200 nM TrxR1 [1] [x-fold] | stoichiometry N [2] |
| --- | --- | --- | --- | --- |
| B1 | 1.2 | 1.8 | 1.8 | 2 and 4 |
| B2 | 1.4 | 2.1 | 1.9 | 2 and 4 |
| B3 | 1.3 | 2.7 | 2 | 2 and 4 |
| B4 |  |  |  | 2 and 4 |
